Measurements taken from US12281162 (LANOVA MEDICINES DEVELOPMENT, dated 2025).
Residue numbers refer to the chain shown, from its start.

B1: 58-H2L2 (antibody, V domains shown)
VH: QVQLVQSGAEVKKPGASVKVSCKASGYSFTGYYIHWVRQAPGQGLEWIGYISSYNAATSFNQKFKGRVTFTVDTSTSTVYMELSSLRSEDTAVYYCARTELRGPWFAYWGQGTLVTVSS
VL: DTQMTQSPSSLSASVGDRVTITCSASSSVSYMNWYQQKPGKAPKRLIYDTSKLASGVPSRFSGSGSGTDYTLTISSLQPEDFATYYCQQWSNNPLTFGQGTKLEIK
notes: humanized 58F9G10, VH v2 x VL v2
B2: 58-H4L3 (antibody, V domains shown)
VH: B1 VH with V20I, R38K, V68A, V79A, L83F, T91S
VL: B1 VL with M4L, I21M, L77M
notes: humanized 58F9G10, VH v4 x VL v3
B3: 58-H2L1 (antibody, V domains shown)
VH: B1 VH
VL: B1 VL with T2I, R45L, Y70F
notes: humanized 58F9G10, VH v2 x VL v1
B4: 58-H2L3 (antibody, V domains shown)
VH: B1 VH
VL: B1 VL with M4L, I21M, L77M
notes: humanized 58F9G10, VH v2 x VL v3
B5: 58-H3L3 (antibody, V domains shown)
VH: B1 VH with R38K, L83F
VL: B1 VL with M4L, I21M, L77M
notes: humanized 58F9G10, VH v3 x VL v3
B6: 58-H4L2 (antibody, V domains shown)
VH: B1 VH with V20I, R38K, V68A, V79A, L83F, T91S
VL: B1 VL
notes: humanized 58F9G10, VH v4 x VL v2
B7: 58-H3L2 (antibody, V domains shown)
VH: B1 VH with R38K, L83F
VL: B1 VL
notes: humanized 58F9G10, VH v3 x VL v2
B8: 58-H1L3 (antibody, V domains shown)
VH: B1 VH with I48M, F70M, V72R
VL: B1 VL with M4L, I21M, L77M
notes: humanized 58F9G10, VH v1 x VL v3
B9: 58-H1L2 (antibody, V domains shown)
VH: B1 VH with I48M, F70M, V72R
VL: B1 VL
notes: humanized 58F9G10, VH v1 x VL v2
B10: 58-H4L1 (antibody, V domains shown)
VH: B1 VH with V20I, R38K, V68A, V79A, L83F, T91S
VL: B1 VL with T2I, R45L, Y70F
notes: humanized 58F9G10, VH v4 x VL v1
B11: 2D3C12 (antibody, V domains shown)
VH: QVQLQQSGAELVRPGTSVKVSCKASGYAFINYLIEWIKQRPGQGLEWIGMINPGSGGTNYNEKFKDKATLTADKSSSTAYMQLSSLTSDDSAVYFCARNWDVWGQGTTLTVSS
VL: DVVMTQSPLSLPVSLGDQASVSCRSSQSLVHSTGNTYLHWYLQKPGQSPKLLIYKVSNRFSGVPDRFSGSGSGTDFTLKISRVEAEDLGVYFCSQSTHVPWTFGGGTKLEIK
notes: murine antibody from hybridoma supernatant
B12: 21C3C11B3 (antibody, V domains shown)
VH: B11 VH
VL: B11 VL
notes: as for B11
B13: 34D4A10 (antibody, V domains shown)
VH: B11 VH with N31S
VL: B11 VL
notes: as for B11
B14: 37B9C4 (antibody, V domains shown)
VH: EVNLEESGGGLVQPGGSMKLSCVASGFTFSDYWMNWVRQSPEKGLEWVAEIRLKSNNYATHYAESVKGRFTISRDDSKSSVYLQMNNLRAEDTGIYYCTRPLLWFRRYYAMDYWGQGTSVTVSS
VL: DIQMTQTTSSLSASLGDRITISCSASQGISNYLNWYQQKPDGTVKLLIYYTSSLHSGVPSRFSGSGSGTDYSLTISNLEPADIATYYCQQYSKLPFTFGSGTKLEIK
notes: as for B11
B15: 29B2C10 (antibody, V domains shown)
VH: EVQLQQSGPELVKPGASMKLSCKASGYSFTGYTMHWVKQSHGENLEWIGLINPYNGGTNYNQKFKGKATLTVDKSSSTAYMELLSLTSEDSAVYYCSRWGLRRAMDYWGQGTSVTVSS
VL: DIVMTQSQKFMSTSVGDRVSVTCKASQNVGSNVAWYQQKPGQSPKALIYSASYRYSGVPDRFTGNGSGTDFTLTISNVQSEDLAEYFCQQYYNSPWTFGGGTKLEIK
notes: as for B11
B16: 14F3H2 (antibody, V domains shown)
VH: B15 VH with L20I, H35N, E43K, T58I, N59R, S97A
VL: B15 VL with S31T, N65S, Y92N, N93S
notes: as for B11
B17: 29A7H11H4C12 (antibody, V domains shown)
VH: B15 VH with L20I
VL: B15 VL with V15I
notes: as for B11
B18: 26E1D12 (antibody, V domains shown)
VH: B15 VH with L20I, H35N, E43K, T71A, E82D
VL: B15 VL with N65S, Y92N
notes: as for B11
B19: 14C2A11C6 (antibody, V domains shown)
VH: QVHLQQSGAELARPGASVKMSCKASGYTFTTYTMHWVKQRPGQGLEWIGYINPNSAYTNYNQKFKDKATLTADKSSSTAYMQLSSLTSEDSAVYYCARRVLLLRVLDFFDYWGQGTTLTVSS
VL: DVQITQSPSYLAASPGETITINCRASKSINKYLTWYQEKPGKTNKLLIYSGSTLQSGIPSRFSGSGSGSDFTLTISSLEPEDFAMYYCQQHNEYPLTFGTGTKLELK
notes: murine antibody from hybridoma supernatant; also called 14C2A1106
B20: 40A5B2 (antibody, V domains shown)
VH: EVQLQQSGPELVKPGASVKMSCKASGYTFTRNIMHWVKQKPGQGLEWIGYINPYNAGSKYNEKFKGKATLTSDISSSTAYMELSSLTSEDSAVYYCAREEVYYRYGAWFAYWGHGTLVTVSA
VL: DIVLTQSPASLAVSLGQRATISCRASQSVSTSSYSYMHWYQQKPGQPPKLLIKYASNLESGVPARFSGSGSGTDFTLNIHPVEEEDTATYYCQHSWEIPRTFGGGTKLEIK
notes: as for B11
B21: 34D3H1 (antibody, V domains shown)
VH: EVHLVESGGDLVKPGGSLKLSCAASGFTFSSYGMSWVRQTPDKRLEWVATISSGGSYTYYPDSVKGRFTISRDNAKNTLNLQMSSLKSEDTAMYYCARQGGDAMDYWGQGTSVTVSS
VL: DIVLTQSPATLSVTPGDSVSLSCRASQSINNNLHWYQQKSHESPRLLIKYASQSISGIPSRFSGSGSGTDFTLSINSVETEDFGMYFCQQSNSRLTFGAGTKLELK
notes: as for B11
B22: 58F9G10 (antibody, V domains shown)
VH: EVQLQQSGPELVKTGASVKISCKASGYSFTGYYIHWVKQSHGKSLEWIGYISCYNGATSFNQKFKGKATFTVDTSSSTAYMQFNSLTSEDSAVYYCARTELRGPWFAYWGQGTLVTVSA
VL: QTVLTQSPAIMSASPGEKVTMTCSASSSVSYMNWYQQKSGTSPKRWIYDTSKLASGVPARFSGSGSGTSYSLTISSMEAEDAATYYCQQWSNNPLTFGAGTKLELK
notes: as for B11
B23: 6G10D9 (antibody, V domains shown)
VH: QVQLQQSGAELARPGASVKMSCKASGYTFTTYTMHWVKQRPGQGLEWLGYINPSSGYTNYNQKFKDKATLTAGKSSSTAYMQLSSLTSEDSAVYYCASLRSRGYFDYWGQGTTLTVSS
VL: DIVMTQSQTFMSTSVGDRVRITCKASQNVGTAVVWYQQKTGQSPRLLIYSASNRYTGVPDRFTGSGSGTDFTLTISNMQSEDLADFFCQQYSSYPYTFGGGTKLEIK
notes: as for B11
B24: 38A10E9A11 (antibody, V domains shown)
VH: B23 VH with L48I, Q110R
VL: B23 VL with T9K, M11L, R20S, V34A, T40P, R45K, D85G, F86Y
notes: as for B11

target: T1, human G-protein-coupled receptor family C group 5 member D (GPRC5D) (human, UniProt Q9NZD1 1-345); test: FACS, CHO-K1/GPRC5D
T1 construct: whole, on cells; also called human GPRC5D protein
T1 sequence (Q9NZD1 whole entry): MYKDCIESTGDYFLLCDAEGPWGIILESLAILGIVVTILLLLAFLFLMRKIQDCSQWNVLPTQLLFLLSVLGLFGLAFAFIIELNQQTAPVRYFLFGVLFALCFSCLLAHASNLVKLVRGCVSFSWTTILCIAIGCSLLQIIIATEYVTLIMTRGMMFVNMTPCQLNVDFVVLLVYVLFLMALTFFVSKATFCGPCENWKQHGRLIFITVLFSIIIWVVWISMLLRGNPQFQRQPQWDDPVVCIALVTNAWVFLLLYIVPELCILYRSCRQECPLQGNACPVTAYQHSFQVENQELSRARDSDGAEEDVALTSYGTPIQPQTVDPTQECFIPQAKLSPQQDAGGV

Bottom	LogEC50	Span	Top	Binder
4840	0.345	103000	108000	B1
6250	0.287	96400	103000	B2
3620	0.378	106000	110000	B3
1230	0.27	90500	91700	B4
4020	0.318	93700	97700	B5
4600	0.341	100000	105000	B6
5980	0.374	99500	105000	B7
4230	0.231	101000	105000	B8
5500	0.263	109000	114000	B9
4990	0.365	99600	105000	B10

target: T1, human G-protein-coupled receptor family …; test: FACS, CHO-K1/human GPRC5D, hybridoma supernatant
Protocol: Antibodies harvested from the supernatants of the hybridomas were tested for their binding to the human GPRC5D protein expressed on CHO K1 cells was tested. CHO—K1 cells stably expressed human GPRC5D, were harvested from flasks. 100 µl of 1×10^6 cells/ml of cells were incubated with murine antibodies in 3-fold serial dilutions for 30 minutes on ice. After being washed with 200 µl of FACS buffer twice, cells were incubated with secondary antibody for 30 minutes on ice. Cells were washed with 200 µl of FACS buffer twice and transferred to BD Falcon 5 ml tube and analyzed by FACS.

Bottom	LogEC50	Span	Top	Binder
46100	0.454	789000	835000	B11
57000	0.654	1.45e+06	1.51e+06	B12
2740	1.02	919000	922000	B13
10900	0.592	1.75e+06	1.76e+06	B14
68600	0.62	1.54e+06	1.61e+06	B15
20400	0.874	852000	873000	B16
43400	0.738	1.42e+06	1.46e+06	B17
52700	0.225	625000	678000	B18
5570	0.993	723000	729000	B19
25400	0.511	1.17e+06	1.2e+06	B20
-13300	0.884	1.43e+06	1.41e+06	B21
-14700	0.964	2.07e+06	2.05e+06	B22
6870	0.912	1.42e+06	1.43e+06	B23
24000	0.947	1.76e+06	1.79e+06	B24
